From patent publication US20050249735A1 come the findings set out here.

Experiment [1] concerns the target human lymphotoxin (TNFβ) (human) (UniProt P01374). The experiment can be described thus: cell-based or functional assay.
The target of experiment [2] is human tumor necrosis factor-alpha (TNFα) (human) (UniProt P01375). The experiment can be described thus: cell-based or functional assay.
human tumor necrosis factor-alpha (TNFα) (human), sequence (P01375 77-233): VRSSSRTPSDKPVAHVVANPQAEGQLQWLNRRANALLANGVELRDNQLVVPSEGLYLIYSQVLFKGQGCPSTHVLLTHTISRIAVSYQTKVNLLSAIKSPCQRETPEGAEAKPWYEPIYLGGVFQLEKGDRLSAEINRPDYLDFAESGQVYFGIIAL

human lymphotoxin (TNFβ) (human), sequence (P01374 35-205 limits assumed): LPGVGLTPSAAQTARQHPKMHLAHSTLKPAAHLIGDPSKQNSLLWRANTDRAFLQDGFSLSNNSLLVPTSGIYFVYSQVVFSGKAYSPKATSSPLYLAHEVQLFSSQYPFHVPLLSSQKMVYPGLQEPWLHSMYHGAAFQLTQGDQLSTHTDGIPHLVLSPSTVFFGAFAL

The molecule “p55-sf2 (p55 TNF receptor / IgG1 heavy chain single fusion with truncated light chain JCK) (from UniProt P01857 1-330) (Fc fusion)” gave an amount needed for the same degree of inhibition of TNFβ cytotoxicity, against p75P-sf2 in experiment [1] of 3 fold.

In experiment [1], “p75-sf2 (complete extracellular domain of p75 fused to the heavy chain) (from UniProt P20333 23-257; P01857 1-330) (Fc fusion)” displayed an amount needed for the same degree of inhibition of TNFβ cytotoxicity, against p75P-sf2 of 3 fold.

In turn, “p75P-sf2 (p75 heavy chain fusion lacking the C-terminal 53 amino acids of the p75 extracellular domain) (from UniProt P20333 23-204; P01857 1-330) (Fc fusion)” displayed a concentration to half-inhibit human TNFβ at 2 pM, WEHI 164 cytotoxicity in experiment [1] of 31 pM.

B1: chimeric mouse/human IgG1 anti-platelet mAb (7E3) (antibody, INN chains, looked up, V domains shown)
VH: EVQLQQSGTVLARPGASVKMSCEASGYTFTNYWMHWVKQRPGQGLEWIGAIYPGNSDTSYIQKFKGKAKLTAVTSTTSVYMELSSLTNEDSAVYYCTLYDGYYVFAYWGQGTLVTVSA
VL: EIVLTQSPVTLSVTPGDSVSLSCRASRDISNNLHWFQQTSHESPRLLIKYASQSMSGIPSRFSGSGSGTDFTLSINSVETEDFGMYFCQQTNSWPYTFGGGTKLEIK
modifications: full IgG1
In experiment [2], B1 showed an IL-6 in supernatant of FS-4 fibroblasts, rhTNF 0.3 ng/ml, 4 µg/ml antibody of 1.6 ng/mL; an IL-6 in supernatant of FS-4 fibroblasts, rhTNF 1.5 ng/ml, 4 µg/ml antibody of 1.96 ng/mL; an IL-6 in supernatant of FS-4 fibroblasts, rhTNF 7.5 ng/ml, 4 µg/ml antibody of 2.16 ng/mL.
